This note sets out measurements from PMC10387068.

Experiment [1] deals with heterotrimeric Gq 4A (Gαq 4A with Venus(1-155)-β1 and Venus(156-239)-γ2), P50148;P62873;P59768. The experiment is described as follows: BRET assay (receptor-Nluc and Venus-tagged βγ subunits). The following applies: values normalized to cells transfected with the same FZD5-Nluc construct but no Gq 4A; parent: est. 111; read off a plot. On the technique in general: In BRET a luciferase serves as donor, and the signal depends on an acceptor being close.

Experiment [2] concerns the target DEP-Venus (isolated DEP domain of human DVL2 tagged with mVenus) (UniProt O14641). Kind of experiment: direct BRET titration. The following applies: HEK293A cells, constant receptor-Nluc plasmid, increasing DEP-Venus plasmid, read off a plot; for other: BRETmax: parent: est. 0.23; for other: log BRET50: parent: est. 2.6.

For “FZD5-Nluc (wild-type human Frizzled-5, C-terminally tagged with Nanoluciferase) (from UniProt Q13467) F4×45A”, the response in experiment [1] was 102 % BRET. Moreover, in experiment [2], the other: BRETmax is 0.14 and the other: log BRET50 turned out to be 3.1.
Turning to “FZD5-Nluc (wild-type human Frizzled-5, C-terminally tagged with Nanoluciferase) (from UniProt Q13467) G6×34A”, the response in experiment [1] was 108 % BRET. In experiment [2], the other: BRETmax came to 0.23 and the other: log BRET50 was 2.4.
For “FZD5-Nluc (wild-type human Frizzled-5, C-terminally tagged with Nanoluciferase) (from UniProt Q13467) W3×43A”, in that order: 108 % BRET, 0.22 and 2.6.
For “FZD5-Nluc (wild-type human Frizzled-5, C-terminally tagged with Nanoluciferase) (from UniProt Q13467) L6×52A”, in that order: 109 % BRET, 0.22 and 2.7.
In the same order, the values of “FZD5-Nluc (wild-type human Frizzled-5, C-terminally tagged with Nanoluciferase) (from UniProt Q13467) T1×50A” are 111 % BRET, 0.22 and 3.2.
In the case of “FZD5-Nluc (wild-type human Frizzled-5, C-terminally tagged with Nanoluciferase) (from UniProt Q13467) M6×30A”, the response in experiment [1] was 111 % BRET. Moreover, in experiment [2], the other: BRETmax was determined as 0.21 and the other: log BRET50 stood at 3.2.
As to “FZD5-Nluc (wild-type human Frizzled-5, C-terminally tagged with Nanoluciferase) (from UniProt Q13467) Y2×51A”, the response in experiment [1] was 101 % BRET. In experiment [2], the other: BRETmax turned out to be 0.15 and the other: log BRET50 was 2.7.
Take “FZD5-Nluc (wild-type human Frizzled-5, C-terminally tagged with Nanoluciferase) (from UniProt Q13467) L5×62A”: the response in experiment [1] amounted to 113 % BRET. For the same substance, in experiment [2], the other: BRETmax is 0.24 and the other: log BRET50 was found to be 2.4.
Regarding “FZD5-Nluc (wild-type human Frizzled-5, C-terminally tagged with Nanoluciferase) (from UniProt Q13467) V45×52A”, the response in experiment [1] turned out to be 105 % BRET. In addition, in experiment [2], the other: BRETmax amounted to 0.19 and the other: log BRET50 was determined as 2.5.
For “FZD5-Nluc (wild-type human Frizzled-5, C-terminally tagged with Nanoluciferase) (from UniProt Q13467) Y6×51A”, in that order: 106 % BRET, 0.2 and 2.5.
In the same order, the values of “FZD5-Nluc (wild-type human Frizzled-5, C-terminally tagged with Nanoluciferase) (from UniProt Q13467) Y6×53A” are 100 % BRET, 0.13 and 3.1.
As for “FZD5-Nluc (wild-type human Frizzled-5, C-terminally tagged with Nanoluciferase) (from UniProt Q13467) M7×44A”, the response in experiment [1] was found to be 107 % BRET. In experiment [2], the other: BRETmax was determined as 0.22 and the other: log BRET50 came to 2.2.
Turning to “FZD5-Nluc (wild-type human Frizzled-5, C-terminally tagged with Nanoluciferase) (from UniProt Q13467) G5×65A”, the response in experiment [1] came to 115 % BRET. Besides, in experiment [2], the other: BRETmax was determined as 0.25 and the other: log BRET50 is 2.4.
In the same order, the values of “FZD5-Nluc (wild-type human Frizzled-5, C-terminally tagged with Nanoluciferase) (from UniProt Q13467) L3×52A” are 103 % BRET, 0.18 and 2.8.
In the same order, the values of “FZD5-Nluc (wild-type human Frizzled-5, C-terminally tagged with Nanoluciferase) (from UniProt Q13467) T1×53A” are 106 % BRET, 0.19 and 3.1.
In the same order, the values of “FZD5-Nluc (wild-type human Frizzled-5, C-terminally tagged with Nanoluciferase) (from UniProt Q13467) W8×54A” are 105 % BRET, 0.19 and 2.9.
In the case of “FZD5-Nluc (wild-type human Frizzled-5, C-terminally tagged with Nanoluciferase) (from UniProt Q13467) W7×55A”, the response in experiment [1] amounted to 111 % BRET. In experiment [2], the other: BRETmax was determined as 0.19 and the other: log BRET50 came to 3.4.
For “FZD5-Nluc (wild-type human Frizzled-5, C-terminally tagged with Nanoluciferase) (from UniProt Q13467) V3×44A”, in that order: 107 % BRET, 0.2 and 2.5.
In the same order, the values of “FZD5-Nluc (wild-type human Frizzled-5, C-terminally tagged with Nanoluciferase) (from UniProt Q13467) F3×29A” are 108 % BRET, 0.19 and 2.5.
In the same order, the values of “FZD5-Nluc (wild-type human Frizzled-5, C-terminally tagged with Nanoluciferase) (from UniProt Q13467) M3×37A” are 103 % BRET, 0.16 and 3.
In the case of “FZD5-Nluc (wild-type human Frizzled-5, C-terminally tagged with Nanoluciferase) (from UniProt Q13467) Y2×39A”, the response in experiment [1] was determined as 108 % BRET. Besides, in experiment [2], the other: BRETmax was 0.17 and the other: log BRET50 turned out to be 3.4.
Regarding “FZD5-Nluc (wild-type human Frizzled-5, C-terminally tagged with Nanoluciferase) (from UniProt Q13467) C2×50A”, in experiment [1], the response is 101 % BRET. In addition, in experiment [2], the other: BRETmax came out at 0.12 and the other: log BRET50 was determined as 2.8.
Regarding “FZD5-Nluc (wild-type human Frizzled-5, C-terminally tagged with Nanoluciferase) (from UniProt Q13467) R6×32A”, the response in experiment [1] came to 106 % BRET. Besides, in experiment [2], the other: BRETmax came to 0.15 and the other: log BRET50 was determined as 4.1.
Turning to “FZD5-Nluc (wild-type human Frizzled-5, C-terminally tagged with Nanoluciferase) (from UniProt Q13467) G5×58A”, the response in experiment [1] was 106 % BRET. Further, in experiment [2], the other: BRETmax came to 0.21 and the other: log BRET50 is 2.5.
As to “FZD5-Nluc (wild-type human Frizzled-5, C-terminally tagged with Nanoluciferase) (from UniProt Q13467) L5×48A”, the response in experiment [1] came out at 102 % BRET. Moreover, in experiment [2], the other: BRETmax was 0.16 and the other: log BRET50 stood at 2.7.
As for “FZD5-Nluc (wild-type human Frizzled-5, C-terminally tagged with Nanoluciferase) (from UniProt Q13467) W6×61A”, the response in experiment [1] was determined as 102 % BRET. Moreover, in experiment [2], the other: BRETmax was 0.14 and the other: log BRET50 was found to be 2.7.
